± gives the standard deviation of the averaged measurements.
B1: library; a variant is named by its letters at N, in order (parent)
chain: GAGACCGCAACTGAAAAGTTGTGGNNNNNATAGTGAGTCGCTGCCTGCAAAGACACAACT

Variants of: B1
Experiment: ligation selection enrichment (abundance after / before one-round selection) (fold); higher = more template-directed ligation activity
Conditions: with T7Psub CACGGAUGCUAAUACGACUCACUAUA; MgCl2 25 mM; 42 °C; 4 h; pH 8.5
In short: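 RNA ligase library with five randomized core positions (0.75 μM, T7-transcribed) was reacted with RNA substrate (6 μM) in 50 mM EPPS pH 8.5, 25 mM MgCl2 at 42 °C for 4 h, in two independent experiments. Ligated products were PAGE-purified, reverse transcribed, barcoded by PCR and MiSeq-sequenced. Reads with quality score ≥30 at all randomized positions were counted. Enrichment was abundance after ligation divided by abundance before ligation.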
ATGAA gave a ligation selection enrichment of 0.823 ± 0.12. ATGAG gave a ligation selection enrichment of 0.834 ± 0.057. Variant ATGAC has a ligation selection enrichment of 1.69 ± 0.044. Variant ATGAT has a ligation selection enrichment of 34.6 ± 8.1. For CGGGT, the ligation selection enrichment was 0.147 ± 0.034. Variant CGGGC has a ligation selection enrichment of 0.0737 ± 0.008. In the case of CGGGG, the ligation selection enrichment is reported as 0.165 ± 0.043. With CGGGA the ligation selection enrichment was 0.229 ± 0.025. For TGGGC, the ligation selection enrichment was 0.171 ± 0.022. Work on TGGGG yielded a ligation selection enrichment of 0.228 ± 0.049. In the case of TGGGA, the ligation selection enrichment is reported as 0.263 ± 0.038. For TGGGT, the ligation selection enrichment was 0.417 ± 0.23. GGTCG showed a ligation selection enrichment of 2.83 ± 0.25. Variant GGTCC has a ligation selection enrichment of 0.277 ± 0.02. Variant GGTCT has a ligation selection enrichment of 0.471 ± 0.12. GGTCA gave a ligation selection enrichment of 0.9187 ± 0.002. CGTTA gave a ligation selection enrichment of 0.263 ± 0.01. Work on CGTTT yielded a ligation selection enrichment of 0.379 ± 0.0055. With CGTTG the ligation selection enrichment was 2.11 ± 0.56. CGTTC showed a ligation selection enrichment of 0.124 ± 0.0021. GGGGC gave a ligation selection enrichment of 0.21 ± 0.0028. GGGGA was tested, and the ligation selection enrichment was 0.608 ± 0.042. GGGGT was tested, and the ligation selection enrichment was 0.345 ± 0.11. With GGGGG the ligation selection enrichment was 0.405 ± 0.028. For CTTAC, the ligation selection enrichment was 0.153 ± 0.015. Variant CTTAG has a ligation selection enrichment of 0.243 ± 0.0061. In the case of CTTAA, the ligation selection enrichment is reported as 0.257 ± 0.012. CTTAT was tested, and the ligation selection enrichment was 0.512 ± 0.016. For ATCGG, the ligation selection enrichment was 0.801 ± 0.021. With ATCGC the ligation selection enrichment was 0.48 ± 0.024. ATCGA gave a ligation selection enrichment of 3.45 ± 0.064. In the case of ATCGT, the ligation selection enrichment is reported as 0.723 ± 0.28. Variant GTCAC has a ligation selection enrichment of 0.221 ± 0.0092. In the case of GTCAG, the ligation selection enrichment is reported as 0.628 ± 0.038. For GTCAT, the ligation selection enrichment was 0.373 ± 0.0027. With GTCAA the ligation selection enrichment was 0.766 ± 0.16. With GTCCA the ligation selection enrichment was 0.148 ± 0.0086. In the case of GTCCC, the ligation selection enrichment is reported as 0.151 ± 0.0044. GTCCG gave a ligation selection enrichment of 0.529 ± 0.022. GTCCT gave a ligation selection enrichment of 0.266 ± 0.14. GTTAG showed a ligation selection enrichment of 0.728 ± 0.01. With GTTAA the ligation selection enrichment was 0.876 ± 0.12. GTTAC gave a ligation selection enrichment of 0.3144 ± 0.0017. With GTTAT the ligation selection enrichment was 1.54 ± 0.28. Variant CTAGC has a ligation selection enrichment of 0.123 ± 0.0069. Variant CTAGA has a ligation selection enrichment of 0.263 ± 0.038. CTAGG gave a ligation selection enrichment of 0.212 ± 0.06. CTAGT was tested, and the ligation selection enrichment was 0.209 ± 0.029. ATGTG gave a ligation selection enrichment of 0.566 ± 0.096. ATGTT gave a ligation selection enrichment of 0.166 ± 0.064. In the case of ATGTC, the ligation selection enrichment is reported as 0.1721 ± 0.0012. ATGTA gave a ligation selection enrichment of 0.206 ± 0.024. TTCGG gave a ligation selection enrichment of 0.397 ± 0.024. TTCGT gave a ligation selection enrichment of 0.267 ± 0.029. For TTCGC, the ligation selection enrichment was 0.331 ± 0.0077. In the case of TTCGA, the ligation selection enrichment is reported as 2.1 ± 0.11. For CTCTC, the ligation selection enrichment was 0.116 ± 0.0082. Variant CTCTT has a ligation selection enrichment of 0.133 ± 0.075. CTCTG gave a ligation selection enrichment of 0.298 ± 0.058. For CTCTA, the ligation selection enrichment was 0.182 ± 0.031. GTCGA showed a ligation selection enrichment of 2.56 ± 0.37. GTCGT was tested, and the ligation selection enrichment was 0.297 ± 0.13. With GTCGG the ligation selection enrichment was 0.443 ± 0.054. With GTCGC the ligation selection enrichment was 0.371 ± 0.033. Work on CGTCC yielded a ligation selection enrichment of 0.192 ± 0.059. Work on CGTCG yielded a ligation selection enrichment of 2.71 ± 0.46. Variant CGTCA has a ligation selection enrichment of 0.569 ± 0.038. CGTCT showed a ligation selection enrichment of 0.522 ± 0.15. For CTAAA, the ligation selection enrichment was 0.114 ± 0.017. CTAAT showed a ligation selection enrichment of 1.29 ± 0.25. Work on CTAAC yielded a ligation selection enrichment of 0.146 ± 0.054. For CTAAG, the ligation selection enrichment was 0.314 ± 0.043. TTCAC showed a ligation selection enrichment of 0.38 ± 0.036. Work on TTCAA yielded a ligation selection enrichment of 0.427 ± 0.13. For TTCAG, the ligation selection enrichment was 0.375 ± 0.049. TTCAT gave a ligation selection enrichment of 3.73 ± 1.1. In the case of GGGCA, the ligation selection enrichment is reported as 0.298 ± 0.033. GGGCG was tested, and the ligation selection enrichment was 0.626 ± 0.07. GGGCT showed a ligation selection enrichment of 0.765 ± 0.27. GGGCC was tested, and the ligation selection enrichment was 0.243 ± 0.0042. GTAAG was tested, and the ligation selection enrichment was 0.509 ± 0.011. With GTAAA the ligation selection enrichment was 0.321 ± 0.067. GTAAT was tested, and the ligation selection enrichment was 4.35 ± 0.56. Variant GTAAC has a ligation selection enrichment of 0.305 ± 0.011. With ATGCA the ligation selection enrichment was 0.419 ± 0.021. In the case of ATGCC, the ligation selection enrichment is reported as 0.176 ± 0.0063. ATGCG gave a ligation selection enrichment of 1.74 ± 0.19. ATGCT showed a ligation selection enrichment of 0.505 ± 0.074. For CGGAT, the ligation selection enrichment was 57.6 ± 1.5. CGGAG gave a ligation selection enrichment of 0.459 ± 0.021. CGTGT showed a ligation selection enrichment of 0.172 ± 0.066. CGTGC was tested, and the ligation selection enrichment was 0.196 ± 0.039. With CGTGA the ligation selection enrichment was 0.58 ± 0.047. Variant CGTGG has a ligation selection enrichment of 0.261 ± 0.044. TTGTG was tested, and the ligation selection enrichment was 0.223 ± 0.015. For TTGTT, the ligation selection enrichment was 0.311 ± 0.15. Work on TTGTA yielded a ligation selection enrichment of 0.685 ± 0.11. TTGTC showed a ligation selection enrichment of 0.271 ± 0.021. Variant GTGGT has a ligation selection enrichment of 0.274 ± 0.0063. For GTGGG, the ligation selection enrichment was 0.31 ± 0.013. GTGGC showed a ligation selection enrichment of 0.18 ± 0.0046. GTGGA showed a ligation selection enrichment of 1.76 ± 0.068. With TGTTT the ligation selection enrichment was 0.468 ± 0.2. TGTTA gave a ligation selection enrichment of 0.2185 ± 0.00099. Variant TGTTC has a ligation selection enrichment of 0.147 ± 0.071. In the case of TGTTG, the ligation selection enrichment is reported as 1.1 ± 0.08. GTGCG gave a ligation selection enrichment of 2.12 ± 0.13. For GTGCT, the ligation selection enrichment was 0.813 ± 0.23. GTGCA showed a ligation selection enrichment of 0.307 ± 0.043. For GTGCC, the ligation selection enrichment was 0.209 ± 0.022. With TTGCA the ligation selection enrichment was 0.683 ± 0.015. Variant TTGCT has a ligation selection enrichment of 0.947 ± 0.32. In the case of TTGCG, the ligation selection enrichment is reported as 0.391 ± 0.012. For TTGCC, the ligation selection enrichment was 0.231 ± 0.025. With TTACG the ligation selection enrichment was 0.5128 ± 0.0029. TTACC showed a ligation selection enrichment of 0.142 ± 0.02. Variant TTACA has a ligation selection enrichment of 0.193 ± 0.00088. Work on TTACT yielded a ligation selection enrichment of 0.603 ± 0.42. Variant GTGAT has a ligation selection enrichment of 89.4 ± 3. In the case of GTGAG, the ligation selection enrichment is reported as 1.24 ± 0.03. GTGAA showed a ligation selection enrichment of 1.7381 ± 0.00037. Work on GTGAC yielded a ligation selection enrichment of 4.35 ± 0.17. For CTTCA, the ligation selection enrichment was 0.45 ± 0.093. Variant CTTCC has a ligation selection enrichment of 0.27 ± 0.03. Work on ATACT yielded a ligation selection enrichment of 0.541 ± 0.11. With ATACG the ligation selection enrichment was 1.5 ± 0.28. ATACA gave a ligation selection enrichment of 0.257 ± 0.032. In the case of ATACC, the ligation selection enrichment is reported as 0.169 ± 0.016. With AGGGA the ligation selection enrichment was 0.322 ± 0.059. In the case of AGGGC, the ligation selection enrichment is reported as 0.109 ± 0.0024. In the case of AGGGG, the ligation selection enrichment is reported as 0.251 ± 0.027. AGGGT showed a ligation selection enrichment of 0.289 ± 0.097. TGTGC showed a ligation selection enrichment of 0.151 ± 0.015. With TGTGG the ligation selection enrichment was 0.196 ± 0.025. Variant TGTGT has a ligation selection enrichment of 0.102 ± 0.061. Variant TGTGA has a ligation selection enrichment of 0.629 ± 0.018. CTGAA showed a ligation selection enrichment of 0.424 ± 0.0081. CTGAG gave a ligation selection enrichment of 0.724 ± 0.054. In the case of CTGAT, the ligation selection enrichment is reported as 22 ± 5.4. CTGAC was tested, and the ligation selection enrichment was 1.07 ± 0.085. ATGGA gave a ligation selection enrichment of 0.662 ± 0.029. ATGGG was tested, and the ligation selection enrichment was 0.265 ± 0.05. Variant ATGGT has a ligation selection enrichment of 0.181 ± 0.092. Work on ATGGC yielded a ligation selection enrichment of 0.128 ± 0.0069. In the case of ATCTA, the ligation selection enrichment is reported as 0.203 ± 0.01. In the case of ATCTC, the ligation selection enrichment is reported as 0.078 ± 0.025. ATCTG showed a ligation selection enrichment of 0.796 ± 0.041. ATCTT showed a ligation selection enrichment of 0.102 ± 0.083. In the case of CGGCC, the ligation selection enrichment is reported as 0.134 ± 0.031. Variant CGGCA has a ligation selection enrichment of 0.177 ± 0.036. CGGCT showed a ligation selection enrichment of 0.432 ± 0.15. CGGCG was tested, and the ligation selection enrichment was 0.328 ± 0.1. With AGTCA the ligation selection enrichment was 0.891 ± 0.1. With AGTCC the ligation selection enrichment was 0.157 ± 0.034. AGTCG was tested, and the ligation selection enrichment was 3.1 ± 0.045. AGTCT was tested, and the ligation selection enrichment was 0.506 ± 0.043. For ATCCC, the ligation selection enrichment was 0.168 ± 0.049. ATCCA showed a ligation selection enrichment of 0.148 ± 0.027. In the case of ATCCG, the ligation selection enrichment is reported as 0.765 ± 0.036. Work on ATCCT yielded a ligation selection enrichment of 0.468 ± 0.17. TGGCG gave a ligation selection enrichment of 0.345 ± 0.019. Work on TGGCT yielded a ligation selection enrichment of 0.75 ± 0.2. Variant TGGCC has a ligation selection enrichment of 0.286 ± 0.041. Work on TGGCA yielded a ligation selection enrichment of 0.252 ± 0.025. GGTAC was tested, and the ligation selection enrichment was 0.479 ± 0.053. With GGTAA the ligation selection enrichment was 0.348 ± 0.1. GGTAG gave a ligation selection enrichment of 1.05 ± 0.028.

Source: the supplement of paper PMC10219994
